Laboratory results reported in patent US20220054630A1.
pKd: −log10 of the molar value.

Assays:
sE2 wild-type = sE2 wild-type (UniProt P27958); experiment: BLI
Wild-type = Wild-type (UniProt P27958); experiment: BLI

CBH-4D
pKd (sE2 wild-type): 8.08

HC33.1
pKd (sE2 wild-type): 8.02

HC84.26.WH.5DL
pKd (Wild-type): 8.37
pKd (sE2 wild-type): 8.37

HC84.1
pKd (sE2 wild-type): 7.52

CBH-4G
pKd (Wild-type): 7.82
pKd (sE2 wild-type): 7.82

HEPC74
pKd (sE2 wild-type): 8.29

HCV1
pKd (sE2 wild-type): 7.38
